The target in assay [1] is T1, active MMP-9_Cat-H6 (human, UniProt P14780 107-449).
T1 construct: human MMP-9 catalytic domain with the Fn-like domain, without the HPX domain; pro-form residues 20-449; not shown: His6, C-terminal, kept
Kind of assay: SEC; MMP-9 (25 μM) incubated with TIMP-1 or M91005 (75 μM; molar ratio 3:1) in PBS for 1 h at 4°C; ACQUITY UPLC BEH200 column in PBS; shift of the retention time. The settings on record: both partners purified.

The target of assay [2] is T2, MMP-9_Cat_E402Q-H6 (human, UniProt P14780 107-449, E402Q).
T2 construct: human MMP-9 catalytic domain with the Fn-like domain, without the HPX domain; pro-form residues 20-449; also called pro-peptide-removed E402Q mutant; active-site mutant; source: HEK293F, transiently expressed, purified (HisTrap excel), pro-peptide removed with MMP-3; not shown: His6, C-terminal, kept
T2 sequence (P14780 107-449 E402Q): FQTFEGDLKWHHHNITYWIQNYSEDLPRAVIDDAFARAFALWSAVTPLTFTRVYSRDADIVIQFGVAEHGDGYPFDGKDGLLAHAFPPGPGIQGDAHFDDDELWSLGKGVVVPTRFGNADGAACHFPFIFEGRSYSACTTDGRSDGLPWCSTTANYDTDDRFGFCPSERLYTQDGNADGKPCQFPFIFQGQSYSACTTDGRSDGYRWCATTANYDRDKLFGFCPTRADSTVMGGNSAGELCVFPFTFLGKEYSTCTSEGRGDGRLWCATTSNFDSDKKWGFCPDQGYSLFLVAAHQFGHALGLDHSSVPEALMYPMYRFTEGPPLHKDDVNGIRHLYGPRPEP
The assay is described as above. The settings on record: both partners purified.

T1 sequence (P14780 107-449): as the sequence (P14780 107-449 E402Q) above, with Q296E counted along it

B1: Human TIMP-1 (natural protein)
chain: not shown
notes: signal peptide in the construct; human TIMP-1 residues 1-207
On to B1, for which the binding result in assay [1] and in assay [2] was “binds” each time.

Source of the values: paper PMC7771667, “Discovery of potent and specific inhibitors targeting the active site of MMP-9 from the engineered SPINK2 library” (PLoS ONE, 2020).
